Assay results reported in CN116265487A (SANYOU BIO INC, dated 2023).
Several values for one entry are separate records, joined by “and”; a condition that tells them apart may be missing. Identical values can stand only once.

T1: 重组蛋白hANG2-His (human, UniProt O15123 19-496)
T1 construct: Made in Expi293 cells; not shown: C-terminal His tag
T1 sequence: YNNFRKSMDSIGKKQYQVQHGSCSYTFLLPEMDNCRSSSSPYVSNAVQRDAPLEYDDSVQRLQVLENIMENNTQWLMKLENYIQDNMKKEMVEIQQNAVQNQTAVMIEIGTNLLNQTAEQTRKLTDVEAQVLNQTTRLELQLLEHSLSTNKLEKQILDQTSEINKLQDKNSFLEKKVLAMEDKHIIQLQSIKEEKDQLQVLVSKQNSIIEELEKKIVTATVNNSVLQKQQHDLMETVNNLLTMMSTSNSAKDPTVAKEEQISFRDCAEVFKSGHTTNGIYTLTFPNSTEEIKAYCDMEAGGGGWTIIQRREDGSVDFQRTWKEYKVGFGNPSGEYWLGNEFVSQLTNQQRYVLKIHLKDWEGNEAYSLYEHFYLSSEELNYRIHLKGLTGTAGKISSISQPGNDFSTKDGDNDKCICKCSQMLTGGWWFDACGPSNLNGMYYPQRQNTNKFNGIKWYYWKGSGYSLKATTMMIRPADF

B1: 全人源抗体17 (antibody, human IgG1, kappa, V domains shown)
VH: EVQLVESGGGVVKPGGSLRLSCAASGFTFNKYTINWVRQTPGKGLELVADISSGGDYVNYADSVKGRFTISRDNAKDSVYLLMNGLRAEDTAVYYCARDALTYSNNWLDSWGQGTLVTVSS
VL: DIQLTQSPSFLSASVGDRVTITCRASQGISSYLAWYQQKPGKAPKLLIYAASTLQSGVPSRFSGGGYGTDFTLTISSLQPEDFATYYCQQFESYPLTFGGGTRLEIKR
notes: Fully human anti-ANG2 antibody in IgG1 format
B2: 全人源抗体78A74-7 (antibody, human IgG1, kappa, V domains shown)
VH: QVQLVESGGGLVKPGGSLRLSCAASGFTFSSYSMNWVRQAPGKGLEWVAVISYDGSNKYYADSVKGRFTISRDNSKNTLYLQMNSLRAEDTAVYYCAKATLDGYTAGYYYGMDVWGQGTTVTVSS
VL: EIVLTQSPATLSLSPGERATLSCRASQSVSSYLAWYQQKPGQAPRLLIYDASNRATGIPARFSGSGSGTDFTLTISSLEPEDFAVYYCQLMSNWPPEWTFGQGTKVEIKR
notes: as for B1

How the values were obtained:
hANG1-Fc = hANG1-Fc (human, UniProt Q15389 16-498, limits assumed); assay: ELISA, 2μg/mL hANG1-Fc coated, anti-human Kappa HRP detection
重组蛋白hANG2-His = target: T1, 重组蛋白hANG2-His; assay: ELISA, hANG2-His coated, anti-human-IgG-Fc-HRP detection
生物素标记的hANG2-Fc蛋白 = target: T2, 生物素标记的hANG2-Fc蛋白 (human, biotin-labelled (sites not given)); assay: FACS blocking of biotin-hANG2-Fc binding to huTie2-HEK293 cells
T2 construct: also called biotin-hANG2-Fc

Sequence of hANG1-Fc (Q15389 other isoform, or with tags, fused parts or gaps limits assumed): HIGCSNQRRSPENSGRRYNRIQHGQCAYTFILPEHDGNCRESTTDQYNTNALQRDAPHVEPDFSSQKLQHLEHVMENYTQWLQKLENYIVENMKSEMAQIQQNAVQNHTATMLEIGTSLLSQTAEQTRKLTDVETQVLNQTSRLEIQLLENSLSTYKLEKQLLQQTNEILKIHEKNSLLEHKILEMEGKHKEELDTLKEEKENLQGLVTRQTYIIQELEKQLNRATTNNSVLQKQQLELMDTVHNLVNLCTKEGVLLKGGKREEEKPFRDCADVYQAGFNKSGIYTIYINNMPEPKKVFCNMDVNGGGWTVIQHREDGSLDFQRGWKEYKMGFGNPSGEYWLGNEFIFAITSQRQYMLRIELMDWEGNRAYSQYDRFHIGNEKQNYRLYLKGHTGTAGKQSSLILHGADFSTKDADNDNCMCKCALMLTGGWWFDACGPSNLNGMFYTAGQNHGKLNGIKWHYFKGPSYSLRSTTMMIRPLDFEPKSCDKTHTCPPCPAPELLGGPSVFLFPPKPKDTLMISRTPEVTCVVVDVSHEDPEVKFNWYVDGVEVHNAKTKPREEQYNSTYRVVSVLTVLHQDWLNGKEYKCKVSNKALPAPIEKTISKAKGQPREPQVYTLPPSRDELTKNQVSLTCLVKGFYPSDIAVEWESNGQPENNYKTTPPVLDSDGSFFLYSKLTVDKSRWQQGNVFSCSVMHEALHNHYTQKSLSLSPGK

binding result (hANG1-Fc)	binding result (重组蛋白hANG2-His)	IC50 (生物素标记的hANG2-Fc蛋白)	Binder
no binding	binds	–	B1
no binding	binds	0.226 nM and 0.44 nM	B2
